Measurements as given in publication PMC7618045, “Outer membrane utilisomes mediate oligosaccharide uptake in gut Bacteroidetes” (Nature, 2023).

B1: SusC^lev (natural protein, B. thetaiotaomicron, UniProt Q8A6W3 26-1041, looked up)
chain: GQNITVKGNVTSKTDGQPIIGASVVETTATTNGTITDFDGNFTLSVPVNSTLKITYIGYKPVTVKAAAIVNVLLEEDTQMVDEVVVTGYTTQRKADLTGAVSVVKVDEIQKQGENNPVKALQGRVPGMNITADGNPSGSATVRIRGIGTLNNNDPLYIIDGVPTKAGMHELNGNDIESIQVLKDAASASIYGSRAANGVIIITTKQGKKGQIKINFDASVSASMYQSKMNVLNTEQYGRAMWQAYVNDGENPNGNALGYAYNWGYNADGNPVLYGMTLSKYLDSKNTMPVADTDWFDEITRTGVIQQYNLSVSNGSEKGSSFFSLGYYKNLGVIKDTDFDRFSARMNSDYKLIDDILTIGQHFTLNRTSEVQAPGGIIETALDIPSAIPVYASDGSWGGPVGGWPDRRNPRAVLEYNKDNRYTYWRMFGDAYVNLTPFKGFNLRSTFGLDYANKQARYFTYPYQEGTQTNNGKSAVEAKQEHWTKWMWNAIATYQLEVGKHRGDVMIGMELNREDDSHFSGYKEDFSILTPDYMWPDAGSGTAQAYGAGEGYSLVSFFGKMNYSYADRYLLSLTLRRDGSSRFGKNHRYATFPSVSLGWRITQENFMKELTWLDDLKLRASWGQTGNQEISNLARYTIYAPNYGTTDSFGGQSYGTAYDITGSNGGGVLPSGFKRNQIGNDNIKWETTTQTNVGIDFSLFKQSLYGSLEYYYKKATDILTEMAGVGVLGEGGSRWINSGAMKNQGFEFNLGYRNKTAFGLTYDLNGNISTYRNEILELPETVAANGKFGGNGVKSVVGHTYGAQVGYIADGIFKSQDEVDNHATQEGAAVGRIRYRDIDHNGVIDERDQNWIYDPTPSFSYGLNIYLEYKNFDLTMFWQGVQGVDIISDVKKKSDFWSASNVGFLNKGTRLLNAWSPTNPNSDIPALTRSDTNNEQRVSTYFVENGSFLKLRNIQLGYTVPAVISKKMRMDRLRFYCSAQNLLTIKSKNFTGEDPENPNFSYPIPVNITFGLNIGF
notes: SusC^lev, the TonB-dependent outer membrane transporter (SusC) of the levan PUL of B. thetaiotaomicron; Two copies stand in the utilisome (SusC2D2 core); written here without a tag; also called levan SusC; source: endogenous, B. thetaiotaomicron grown on fructose; co-purified from detergent-solubilised membranes (LDAO sample; DDM sample: Ni2+ column, SEC)

What was measured:
[1] = target: SusC^dex (B. thetaiotaomicron); experiment: cryo-EM structure; dextran utilisome (Bt3087-Bt3090), 0.05 mg/ml in 10 mM HEPES, 100 mM NaCl, pH 7.5, 0.03% DDM; heptamers, hexamers and pentamers; 3.1 Å consensus; AlphaFold2 models of SusD^dex, GH^dex and SGBP^dex docked into the map
[2] = target: the molecule itself; experiment: cryo-EM structure; apo (substrate-free) levan utilisome, 3 mg/ml in 10 mM HEPES pH 7.5, 100 mM NaCl, 0.03% DDM; ~6 Å classes, 3.5 Å focused C2 refinement without SusD

Row | Molecule | stoichiometry N [1] | stoichiometry N [2]
1 | SusC^dex (natural protein) | 2 | –
2 | B1 | – | 2
